Data set [1] has as its system female Sprague Dawley rats. The data set can be described thus: In vivo delivery of modified RNA: G-CSF protein in rat serum (I.M.). The settings on record: I.M. 400 ug in 100 ul, 5% sucrose, 8 hours after injection. As for the experimental part:
Protein production of modified mRNA was evaluated by delivering modified G-CSF mRNA or modified Factor IX mRNA to female Sprague Dawley rats (n=6). […] Blood was collected 8 hours after injection and the G-CSF protein level in serum was measured by ELISA.

The test system of data set [2] is Human primary foreskin fibroblasts (BJ fibroblasts). The data set can be described thus: Innate immune response in BJ fibroblasts, repeat transfection: cytokine response. In kind it is cell-based.
Data set [3] relates to Female BALB/C mice. Put plainly: In vivo detection of innate immune response: human G-CSF and mouse IFN-alpha in serum after I.M. injection. The settings on record: for PC Ratio: Protein:Cytokine ratio, G-CSF / IFN-alpha in mouse serum; for G-CSF protein: human G-CSF in mouse serum, 200 ug/mouse mRNA (R848 75 ug) in 5% sucrose; for G-CSF protein / IFN-alpha expression: I.M., 8 hours after dosing; for IFN-alpha expression: mouse IFN-alpha in serum, 200 ug/mouse mRNA (R848 75 ug).
Description: Blood is collected at 8 hours after dosing and using ELISA the protein levels of G-CSF and interferon-alpha (IFN-alpha) is determined by ELISA and are shown in Table 81.

Data set [4] concerns mice. The data set can be described thus: In vivo cytokine expression study (serum IFN-alpha). Particulars: mouse serum; I.M. 200 ug mRNA; after 8 hours.
Description: After 8 hours serum was collected from the mice and analyzed for interferon-alpha (IFN-alpha) expression.
[5] abbreviates: 250 ng transfected daily for 5 days, 6 hours.

B1: G-CSF Gen 1: G-CSF mRNA SEQ ID NO: 6, Cap1, fully modified with 5-methylcytosine and pseudouridine (nucleic acid, listed as Homo sapiens)
chain: GGGAAAUAAGAGAGAAAAGAAGAGUAAGAAGAAAUAUAAGAGCCACCAUGGCCGGUCCCGCGACCCAAAGCCCCAUGAAACUUAUGGCCCUGCAGUUGCUGCUUUGGCACUCGGCCCUCUGGACAGUCCAAGAAGCGACUCCUCUCGGACCUGCCUCAUCGUUGCCGCAGUCAUUCCUUUUGAAGUGUCUGGAGCAGGUGCGAAAGAUUCAGGGCGAUGGAGCCGCACUCCAAGAGAAGCUCUGCGCGACAUACAAACUUUGCCAUCCCGAGGAGCUCGUACUGCUCGGGCACAGCUUGGGGAUUCCCUGGGCUCCUCUCUCGUCCUGUCCGUCGCAGGCUUUGCAGUUGGCAGGGUGCCUUUCCCAGCUCCACUCCGGUUUGUUCUUGUAUCAGGGACUGCUGCAAGCCCUUGAGGGAAUCUCGCCAGAAUUGGGCCCGACGCUGGACACGUUGCAGCUCGACGUGGCGGAUUUCGCAACAACCAUCUGGCAGCAGAUGGAGGAACUGGGGAUGGCACCCGCGCUGCAGCCCACGCAGGGGGCAAUGCCGGCCUUUGCGUCCGCGUUUCAGCGCAGGGCGGGUGGAGUCCUCGUAGCGAGCCACCUUCAAUCAUUUUUGGAAGUCUCGUACCGGGUGCUGAGACAUCUUGCGCAGCCGUGAAGCGCUGCCUUCUGCGGGGCUUGCCUUCUGGCCAUGCCCUUCUUCUCUCCCUUGCACCUGUACCUCUUGGUCUUUGAAUAAAGCCUGAGUAGGAAG
modifications: Cap1, 5mC/pseudouridine modified
Regarding B1, the figures for the G-CSF protein in data set [1] and in data set [3] were 19.37 pg/mL and 356.5 pg/mL, respectively. For the same molecule, the IFN-beta in data set [2] (setting [5]) worked out at 0 pg/mL; in data set [2] (daily transfection, Day 1), 38 pg/mL; in data set [2] (daily transfection, Day 2) it was 1125 pg/mL; in data set [2] (daily transfection, Day 3), 100 pg/mL; in data set [2] (daily transfection, Day 4), 75 pg/mL; in data set [2] (daily transfection, Day 5) it was 213 pg/mL. Further, the IL-6 in data set [2] (daily transfection, 6 hours) is 3396 pg/mL; in data set [2] (daily transfection, Day 1), 3870 pg/mL; in data set [2] (daily transfection, Day 2) it was 16341 pg/mL; in data set [2] (daily transfection, Day 3), 25983 pg/mL; in data set [2] (daily transfection, Day 4), 18922 pg/mL; in data set [2] (daily transfection, Day 5), 15928 pg/mL. The “PC Ratio” value in data set [3] is reported as 40. Besides, the values for the IFN-alpha expression entry in data set [3] (listed as 5mc/pU modified G-CSF mRNA) and in data set [3] (listed as GCSF mRNA 5mc/pU) were “low but detectable cytokine response” and 8.87 pg/mL, respectively. The IFN-alpha in data set [4] was determined as 8.867 pg/mL.

B2: G-CSF Gen 2: G-CSF mRNA SEQ ID NO: 6, Cap1, fully modified with 5-methylcytosine and N1-methylpseudouridine (nucleic acid, listed as Homo sapiens)
chain: GGGAAAUAAGAGAGAAAAGAAGAGUAAGAAGAAAUAUAAGAGCCACCAUGGCCGGUCCCGCGACCCAAAGCCCCAUGAAACUUAUGGCCCUGCAGUUGCUGCUUUGGCACUCGGCCCUCUGGACAGUCCAAGAAGCGACUCCUCUCGGACCUGCCUCAUCGUUGCCGCAGUCAUUCCUUUUGAAGUGUCUGGAGCAGGUGCGAAAGAUUCAGGGCGAUGGAGCCGCACUCCAAGAGAAGCUCUGCGCGACAUACAAACUUUGCCAUCCCGAGGAGCUCGUACUGCUCGGGCACAGCUUGGGGAUUCCCUGGGCUCCUCUCUCGUCCUGUCCGUCGCAGGCUUUGCAGUUGGCAGGGUGCCUUUCCCAGCUCCACUCCGGUUUGUUCUUGUAUCAGGGACUGCUGCAAGCCCUUGAGGGAAUCUCGCCAGAAUUGGGCCCGACGCUGGACACGUUGCAGCUCGACGUGGCGGAUUUCGCAACAACCAUCUGGCAGCAGAUGGAGGAACUGGGGAUGGCACCCGCGCUGCAGCCCACGCAGGGGGCAAUGCCGGCCUUUGCGUCCGCGUUUCAGCGCAGGGCGGGUGGAGUCCUCGUAGCGAGCCACCUUCAAUCAUUUUUGGAAGUCUCGUACCGGGUGCUGAGACAUCUUGCGCAGCCGUGAAGCGCUGCCUUCUGCGGGGCUUGCCUUCUGGCCAUGCCCUUCUUCUCUCCCUUGCACCUGUACCUCUUGGUCUUUGAAUAAAGCCUGAGUAGGAAG
modifications: Cap1, 5mC/N1-methylpseudouridine modified
In the case of B2, the G-CSF protein in data set [1] is 64.72 pg/mL; in data set [3], 748.1 pg/mL. The IFN-beta stood at 0 pg/mL in data set [2] (setting [5]); 0 pg/mL in data set [2] (daily transfection, Day 1); 150 pg/mL in data set [2] (daily transfection, Day 2); 213 pg/mL in data set [2] (daily transfection, Day 3); 1400 pg/mL in data set [2] (daily transfection, Day 4); 350 pg/mL in data set [2] (daily transfection, Day 5). Further, the IL-6 in data set [2] (daily transfection, 6 hours) amounted to 3337 pg/mL; in data set [2] (daily transfection, Day 1) it was 3733 pg/mL; in data set [2] (daily transfection, Day 2), 974 pg/mL; in data set [2] (daily transfection, Day 3), 4972 pg/mL; in data set [2] (daily transfection, Day 4), 4122 pg/mL; in data set [2] (daily transfection, Day 5), 2906 pg/mL. In addition, the “PC Ratio” value in data set [3] amounted to 748. For the same molecule, the IFN-alpha expression result is “no detectable IFN-alpha” in data set [3] (listed as 5mc/N1pU modified mRNA) and 0 pg/mL in data set [3] (listed as GCSF mRNA5mc/N1pU). This molecule also yielded an IFN-alpha in data set [4] of 0 pg/mL.

The values above are taken from patent US20160193299A1, “MODIFIED NUCLEOSIDE, NUCLEOTIDE, AND NUCLEIC ACID COMPOSITIONS” (Moderna Therapeutics, Inc., priority 2011, published 2016).
